Molecular target: Biotinylated peptide BubR1 WT (Q293 to R302) (human)
Assay: pull-down

Q: How did the fold of protein bound against the W295A peptide turn out when “GST-tagged BubR1 TPR (wild type) (from UniProt O60566 1-230) (domain or fragment)” was run?
A: 5 fold
